Assay results as given in US20260000597A1 (priority 2018, published 2026).

Biological target: AchR (Homo sapiens, UniProt P02708)
Assay: ELISA of screened peptide phages on AchR versus streptavidin (OD450)
Format: binding
Details: absorbance at 450 nm
Procedure: The output phages for the 4th and 5th rounds of biopanning in Example 13-1 were inoculated to E. coli, and plated on the agar plates so as to form 100-200 plaques per plate. The plaques were inoculated on 1 ml of an SB liquid medium containing 50 μg/ml of ampicillin by using a sterile tip, and cultured with shaking at 37° C. for 5 hours, followed by the addition of 30 μl of helper phages, and then cultured at 37° C. and 200 rpm for one day. The culture was centrifuged at 12,000 rpm for 2 minutes to collect supernatant, and 2% BSA was added to the supernatant, and used for phage screening.
In a 96-well ELISA plate, 5 μg/ml AchR or streptavidin was added at 50 μl per well, and left at 4° C. overnight. The next day, the solution in each well was discarded, followed by the addition of 2% BSA, and then blocked at room temperature for 2 hours. After the solution was all discarded, the wells were washed three times with Tris (20 mM, pH7). In addition, 100 μl of each of the phage solutions obtained from the above-prepared plaques was dispensed into wells and left at 30° C. for 1 hour. After the solution in the wells was all discarded, the wells were washed three times with Tris (20 mM, pH 7), and then the HRP-conjugated anti-M13 antibody diluted 1:2,000 was added at 100 μl per well, followed by culture at 30° C. for 1 hour. After the wells were washed three times with Tris (20 mM, pH7), 100 μl of tetramethylbenzidine was added to each well to induce a color development reaction, and then the reaction was stopped by the addition of 100 μl of 1M H2SO4, and the absorbance at 450 nm (OD450) was measured. The measured absorbance was converted into a ratio of AchR absorbance to streptavidin absorbance (AchR signal/streptavidin signal), and the results are shown in FIGS. 14 to 16.

[1] = phage ELISA, 5 μg/ml AchR, 4th and 5th round biopanning phages
[2] = ELISA of selected 11-mer (L2) peptide phages on AchR, Spep-2 positive control

AchR, sequence (P02708 21-457): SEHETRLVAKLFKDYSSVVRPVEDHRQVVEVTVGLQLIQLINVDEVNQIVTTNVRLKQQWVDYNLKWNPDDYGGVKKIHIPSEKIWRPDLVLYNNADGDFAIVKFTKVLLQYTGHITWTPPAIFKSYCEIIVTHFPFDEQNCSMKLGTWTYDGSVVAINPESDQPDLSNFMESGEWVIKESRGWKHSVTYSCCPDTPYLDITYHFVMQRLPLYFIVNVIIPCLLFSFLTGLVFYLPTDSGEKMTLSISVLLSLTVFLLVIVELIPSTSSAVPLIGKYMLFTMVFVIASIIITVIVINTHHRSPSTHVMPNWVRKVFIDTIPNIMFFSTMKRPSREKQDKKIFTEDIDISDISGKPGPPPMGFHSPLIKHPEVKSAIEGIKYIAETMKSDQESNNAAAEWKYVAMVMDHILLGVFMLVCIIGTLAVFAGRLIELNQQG

Row | Substance | OD [1] | OD [2]
1 | GGGRKKRRQRR [Peptide L2-202, reference compound] | 0.314 | 
2 | GGGRKKRRQRRRGG [Peptide L3-201, reference compound] | 0.315 | 
3 | GGGRRRRRRRR [Peptide L2-204, reference compound] | 0.311 | 
4 | GGRKKRRQRRR [Peptide L2-203, reference compound] | 0.302 | 
5 | GGRKKRRQRRRGGG [Peptide L3-202, reference compound] | 0.301 | 
6 | KAKKIRQR [Peptide L1-1] | 0.693 | 
7 | KAKRDYLR [Peptide L1-145] | 0.54 | 
8 | KAKRGHFK [Peptide L1-68] | 0.55 | 
9 | KARKNSIR [Peptide L1-170] | 0.642 | 
10 | KARKQEVR [Peptide L1-188] | 0.618 | 
11 | KARRNSLK [Peptide L1-175] | 0.621 | 
12 | KARRQEDK [Peptide L1-14] | 0.755 | 
13 | KARRVGTK [Peptide L1-143] | 0.416 | 
14 | KCKKDNDK [Peptide L1-184] | 0.593 | 
15 | KCKKMTER [Peptide L1-37] | 0.524 | 
16 | KCRKTMGR [Peptide L1-123] | 0.409 | 
17 | KDKKMPQR [Peptide L1-185] | 0.55 | 
18 | KDKKQWGR [Peptide L1-114] | 0.42 | 
19 | KDKKTPCK [Peptide L1-193] | 0.588 | 
20 | KDKRPECK [Peptide L1-133] | 0.504 | 
21 | KDKRWANR [Peptide L1-77] | 0.636 | 
22 | KDRKGVYK [Peptide L1-111] | 0.608 | 
23 | KDRKVNSR [Peptide L1-97] | 0.546 | 
24 | KEKKLVWK [Peptide L1-174] | 0.596 | 
25 | KEKRAVHK [Peptide L1-48] | 0.519 | 
26 | KEKRLYAR [Peptide L1-149] | 0.34 | 

Row | Substance | OD [1] | OD [2]
27 | KERKASAK [Peptide L1-63] | 0.618 | 
28 | KERKGAVR [Peptide L1-100] | 0.737 | 
29 | KERKHEAK [Peptide L1-62] | 0.633 | 
30 | KERKLWWK [Peptide L1-171] | 0.583 | 
31 | KFKKHGVK [Peptide L1-21] | 0.65 | 
32 | KFKKSAPR [Peptide L1-136] | 0.392 | 
33 | KFKRTEGR [Peptide L1-19] | 0.575 | 
34 | KFRKGPYR [Peptide L1-135] | 0.479 | 
35 | KFRKHVCK [Peptide L1-116] | 0.492 | 
36 | KFRRQSTR [Peptide L1-139] | 0.456 | 
37 | KGKKLSQR [Peptide L1-75] | 0.581 | 
38 | KGKKYYQK [Peptide L1-105] | 0.507 | 
39 | KGKRDSNK [Peptide L1-51] | 0.66 | 
40 | KGKRTGCK [Peptide L1-126] | 0.362 | 
41 | KHKKLNQR [Peptide L1-7] | 0.68 | 
42 | KHKKQNVR [Peptide L1-18] | 0.627 | 
43 | KHKRTAQR [Peptide L1-78] | 0.642 | 
44 | KIKKAARR [Peptide L1-35] | 0.556 | 
45 | KIKKLSQK [Peptide L1-168] | 0.588 | 
46 | KIKKYYWK [Peptide L1-129] | 0.421 | 
47 | KIKRDLYK [Peptide L1-90] | 0.439 | 
48 | KIKRNVFK [Peptide L1-160] | 0.55 | 
49 | KIRRVTNK [Peptide L1-162] | 0.668 | 
50 | KKRKGSAK [Peptide L1-2] | 0.68 | 
51 | KKRKSLLR [Peptide L1-159] | 0.593 | 
52 | KLKKFPVR [Peptide L1-4] | 0.696 | 

Row | Substance | OD [1] | OD [2]
53 | KLKRAMLK [Peptide L1-169] | 0.636 | 
54 | KLKRRSRR [Peptide L1-16] | 0.62 | 
55 | KLRKQKLR [Peptide L1-43] | 0.601 | 
56 | KMRKFYSK [Peptide L1-189] | 0.616 | 
57 | KMRKGWDK [Peptide L1-138] | 0.373 | 
58 | KMRKHDVR [Peptide L1-74] | 0.649 | 
59 | KMRRAQGR [Peptide L1-34] | 0.634 | 
60 | KMRRIMYK [Peptide L1-64] | 0.589 | 
61 | KMRRVAPR [Peptide L1-176] | 0.479 | 
62 | KMRRWWLK [Peptide L1-190] | 0.644 | 
63 | KNKKCVGR [Peptide L1-88] | 0.562 | 
64 | KNKRTPVK [Peptide L1-86] | 0.551 | 
65 | KNKRWVFK [Peptide L1-141] | 0.505 | 
66 | KNRKNLYR [Peptide L1-36] | 0.553 | 
67 | KNRRADCR [Peptide L1-140] | 0.381 | 
68 | KPKKGGWK [Peptide L1-148] | 0.426 | 
69 | KPKKPPAR [Peptide L1-84] | 0.576 | 
70 | KPKRDQSR [Peptide L1-113] | 0.526 | 
71 | KPKREMHK [Peptide L1-79] | 0.583 | 
72 | KPKRSAPR [Peptide L1-125] | 0.345 | 
73 | KPRKIQGR [Peptide L1-137] | 0.458 | 
74 | KPRRPDTR [Peptide L1-109] | 0.542 | 
75 | KQKKTGFR [Peptide L1-55] | 0.585 | 
76 | KQKRQWAR [Peptide L1-191] | 0.649 | 
77 | KQRKPHGR [Peptide L1-67] | 0.593 | 
78 | KRKKDWWR [Peptide L1-10] | 0.621 | 

Row | Substance | OD [1] | OD [2]
79 | KRRRFRWK [Peptide L1-40] | 0.424 | 
80 | KSKRHHEK [Peptide L1-69] | 0.474 | 
81 | KSKRPEGR [Peptide L1-122] | 0.352 | 
82 | KSRKHCNR [Peptide L1-70] | 0.668 | 
83 | KSRKWGWR [Peptide L1-39] | 0.509 | 
84 | KSRRAVFR [Peptide L1-151] | 0.479 | 
85 | KSRRMWGR [Peptide L1-183] | 0.605 | 
86 | KSRRSAGK [Peptide L1-73] | 0.644 | 
87 | KTKKAAER [Peptide L1-178] | 0.625 | 
88 | KTKKIHSK [Peptide L1-22] | 0.732 | 
89 | KTKKLYEK [Peptide L1-25] | 0.709 | 
90 | KTKRGSLK [Peptide L1-101] | 0.599 | 
91 | KTKRMLAK [Peptide L1-47] | 0.54 | 
92 | KTKRVDPK [Peptide L1-102] | 0.507 | 
93 | KTRKIVMK [Peptide L1-199] | 0.596 | 
94 | KTRKQDHR [Peptide L1-172] | 0.631 | 
95 | KTRRSACR [Peptide L1-134] | 0.365 | 
96 | KTRRVDLR [Peptide L1-38] | 0.514 | 
97 | KVKKIYYR [Peptide L1-144] | 0.503 | 
98 | KVKRLPYR [Peptide L1-146] | 0.362 | 
99 | KVKRLWNR [Peptide L1-110] | 0.422 | 
100 | KVKRVWGR [Peptide L1-163] | 0.618 | 
101 | KVRKSLWK [Peptide L1-52] | 0.56 | 
102 | KVRRVFLK [Peptide L1-132] | 0.541 | 
103 | KWKKMMER [Peptide L1-81] | 0.63 | 
104 | KWKRFSQR [Peptide L1-197] | 0.631 | 

Row | Substance | OD [1] | OD [2]
105 | KWKRNCTK [Peptide L1-65] | 0.585 | 
106 | KWRKRRIK [Peptide L1-46] | 0.637 | 
107 | KWRRAFGR [Peptide L1-87] | 0.538 | 
108 | KWRREGFK [Peptide L1-12] | 0.691 | 
109 | KWRRELPR [Peptide L1-182] | 0.585 | 
110 | KWRREQFR [Peptide L1-76] | 0.588 | 
111 | KWRRNGQR [Peptide L1-98] | 0.54 | 
112 | KYKKQHTK [Peptide L1-41] | 0.613 | 
113 | KYKKSFTK [Peptide L1-198] | 0.63 | 
114 | KYKREEYR [Peptide L1-161] | 0.474 | 
115 | KYRRNLVR [Peptide L1-56] | 0.468 | 
116 | L2-1 (EDYKYRRQNYK; AchR binding peptide) [Peptide L2-1] |  | 0.705
117 | L2-2 (GIWKFRRNQCK; AchR binding peptide) [Peptide L2-2] |  | 0.749
118 | L2-3 (SPVRWKRLCLR; AchR binding peptide) [Peptide L2-3] |  | 0.796
119 | L2-4 (ECYRNRKAYCR; AchR binding peptide) [Peptide L2-4] |  | 0.757
120 | L2-5 (TQQRLKRVMEK; AchR binding peptide) [Peptide L2-5] |  | 0.752
121 | L2-6 (PELKCKRMIGR; AchR binding peptide) [Peptide L2-6] |  | 0.78
122 | L2-7 (WQMKTKKEIWK; AchR binding peptide) [Peptide L2-7] |  | 0.753
123 | L2-8 (FGHRGKKEWAR; AchR binding peptide) [Peptide L2-8] |  | 0.739
124 | L2-9 (ATCKPKRPWYK; AchR binding peptide) [Peptide L2-9] |  | 0.721
125 | L2-10 (TSQKVRKMEAK; AchR binding peptide) [Peptide L2-10] |  | 0.803
126 | L2-11 (GIPKYRRGCSR; AchR binding peptide) [Peptide L2-11] |  | 0.791
